Assay results from IntAct's records for PubMed 11779178.

B1: Merlin (Homo sapiens), P35240-3 (parent)
chain: MAGAIASRMSFSSLKRKQPKTFTVRIVTMDAEMEFNCEMKWKGKDLFDLVCRTLGLRETWFFGLQYTIKDTVAWLKMDKKVLDHDVSKEEPVTFHFLAKFYPENAEEELVQEITQHLFFLQVKKQILDEKIYCPPEASVLLASYAVQAKYGDYDPSVHKRGFLAQEELLPKRVINLYQMTPEMWEERITAWYAEHRGRARDEAEMEYLKIAQDLEMYGVNYFAIRNKKGTELLLGVDALGLHIYDPENRLTPKISFPWNEIRNISYSDKEFTIKPLDKKIDVFKFNSSKLRVNKLILQLCIGNHDLFMRRRKADSLEVQQMKAQAREEKARKQMERQRLAREKQMREEAERTRDELERRLLQMKEEATMANEALMRSEETADLLAEKAQITEEEAKLLAQKAAEAEQEMQRIKATAIRTEEEKRLMEQKVLEAEVLALKMAEESERRAKEADQLKQDLQEAREAERRAKQKLLEIATKPTYPPMNPIPAPLPPDIPSFNLIGDSLSFDFKDTDMKRLSMEIEKEKVEYMEKSKHLQEQLNELKTEIEALKLKERETALDILHNENSDRGGSSKHNTIKKPQAQGRRPICI

Key:
[1] = variants of: B1; details: with eif3c_human EIF3C
[2] = variants of: B1; details: with HGS
[3] = variants of: B1; details: with HGS
[4] = variants of: B1; details: with NF2, P35240-1
[5] = variants of: B1; details: with sptb2_human SPTBN1, Q01082
sptb2_human SPTBN1, Q01082, sequence (Q01082 whole entry): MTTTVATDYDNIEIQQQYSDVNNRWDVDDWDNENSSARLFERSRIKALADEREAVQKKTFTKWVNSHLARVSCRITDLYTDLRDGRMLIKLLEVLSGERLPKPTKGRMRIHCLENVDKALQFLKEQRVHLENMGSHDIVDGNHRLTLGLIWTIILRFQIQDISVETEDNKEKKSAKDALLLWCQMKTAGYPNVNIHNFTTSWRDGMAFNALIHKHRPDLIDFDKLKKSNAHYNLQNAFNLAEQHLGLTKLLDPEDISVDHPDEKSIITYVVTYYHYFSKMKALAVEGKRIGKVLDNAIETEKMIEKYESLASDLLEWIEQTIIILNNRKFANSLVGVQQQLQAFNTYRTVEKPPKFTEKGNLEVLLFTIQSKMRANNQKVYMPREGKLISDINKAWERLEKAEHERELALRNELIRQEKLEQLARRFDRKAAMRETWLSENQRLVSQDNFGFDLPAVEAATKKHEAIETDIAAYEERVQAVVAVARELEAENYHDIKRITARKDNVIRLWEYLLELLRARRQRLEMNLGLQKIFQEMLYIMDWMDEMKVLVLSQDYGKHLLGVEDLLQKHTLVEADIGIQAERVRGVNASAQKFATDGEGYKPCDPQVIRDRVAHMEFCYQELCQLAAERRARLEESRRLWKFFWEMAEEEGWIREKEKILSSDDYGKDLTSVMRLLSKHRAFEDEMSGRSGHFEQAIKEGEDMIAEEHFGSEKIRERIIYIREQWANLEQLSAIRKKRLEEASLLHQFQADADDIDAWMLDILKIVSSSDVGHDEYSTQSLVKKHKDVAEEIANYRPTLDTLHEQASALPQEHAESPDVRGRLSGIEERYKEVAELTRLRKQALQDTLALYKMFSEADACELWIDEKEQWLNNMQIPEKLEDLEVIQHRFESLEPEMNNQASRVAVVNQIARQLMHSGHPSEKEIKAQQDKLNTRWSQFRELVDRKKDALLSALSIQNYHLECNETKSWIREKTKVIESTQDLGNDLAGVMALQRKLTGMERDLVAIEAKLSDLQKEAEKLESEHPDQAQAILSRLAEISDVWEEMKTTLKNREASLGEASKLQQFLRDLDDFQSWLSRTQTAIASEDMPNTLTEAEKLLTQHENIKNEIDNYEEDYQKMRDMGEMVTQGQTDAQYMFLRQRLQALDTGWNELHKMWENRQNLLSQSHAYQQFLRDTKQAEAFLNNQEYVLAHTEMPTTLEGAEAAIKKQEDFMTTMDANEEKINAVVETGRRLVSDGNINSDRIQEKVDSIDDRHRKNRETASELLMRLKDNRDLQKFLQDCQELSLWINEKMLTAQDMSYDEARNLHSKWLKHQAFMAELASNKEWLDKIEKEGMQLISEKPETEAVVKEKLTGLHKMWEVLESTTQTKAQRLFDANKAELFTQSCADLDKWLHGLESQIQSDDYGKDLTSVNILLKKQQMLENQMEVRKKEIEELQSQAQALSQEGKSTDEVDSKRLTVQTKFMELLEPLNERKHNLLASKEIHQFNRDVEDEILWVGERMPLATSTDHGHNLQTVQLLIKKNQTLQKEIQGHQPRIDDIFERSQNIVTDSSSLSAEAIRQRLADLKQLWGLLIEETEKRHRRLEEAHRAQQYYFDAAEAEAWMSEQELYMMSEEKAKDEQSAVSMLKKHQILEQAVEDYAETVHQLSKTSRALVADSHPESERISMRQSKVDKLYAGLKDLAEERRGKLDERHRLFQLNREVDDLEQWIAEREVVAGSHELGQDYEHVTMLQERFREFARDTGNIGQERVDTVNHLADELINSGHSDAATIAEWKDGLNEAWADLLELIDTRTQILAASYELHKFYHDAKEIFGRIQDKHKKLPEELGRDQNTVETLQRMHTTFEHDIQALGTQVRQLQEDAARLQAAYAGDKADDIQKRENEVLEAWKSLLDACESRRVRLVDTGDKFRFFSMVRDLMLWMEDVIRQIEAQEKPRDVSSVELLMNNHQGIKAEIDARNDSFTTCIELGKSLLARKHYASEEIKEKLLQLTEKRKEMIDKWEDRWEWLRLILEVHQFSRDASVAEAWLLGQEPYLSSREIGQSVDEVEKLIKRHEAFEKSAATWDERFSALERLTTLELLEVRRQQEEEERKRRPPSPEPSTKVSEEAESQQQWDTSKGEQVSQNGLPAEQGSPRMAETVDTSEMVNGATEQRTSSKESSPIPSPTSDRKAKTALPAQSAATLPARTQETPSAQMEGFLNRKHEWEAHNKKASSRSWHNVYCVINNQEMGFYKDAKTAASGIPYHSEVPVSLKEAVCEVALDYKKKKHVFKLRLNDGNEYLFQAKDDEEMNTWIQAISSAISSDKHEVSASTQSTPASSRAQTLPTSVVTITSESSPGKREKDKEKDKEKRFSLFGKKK

Variant | effect of a mutation on the interaction [1] | effect of a mutation on the interaction [2] | effect of a mutation on the interaction [3] | effect of a mutation on the interaction [4] | effect of a mutation on the interaction [5]
V219M | with no effect | with no effect | increasing interaction strength | with no effect | increasing interaction strength
K364I | disrupting interaction strength | disrupting interaction strength | disrupting interaction strength | decreasing interaction strength | disrupting interaction strength
L535P | disrupting interaction strength | disrupting interaction strength | disrupting interaction strength | decreasing interaction strength | disrupting interaction strength
Q538P | increasing interaction strength | disrupting interaction strength | disrupting interaction strength | decreasing interaction strength | disrupting interaction strength
N220Y | with no effect | increasing interaction strength | increasing interaction strength | with no effect | increasing interaction strength
L360P | increasing interaction strength | disrupting interaction strength | disrupting interaction strength | decreasing interaction strength | decreasing interaction strength
T352M | increasing interaction strength | with no effect | increasing interaction strength | decreasing interaction strength | decreasing interaction strength
I273F | decreasing interaction strength | increasing interaction strength | increasing interaction strength | with no effect | increasing interaction strength
